Assays:
[1] = biological target: the molecule itself; assay: far-Western, overlay or dot blot
[2] = biological target: T1, recombinant whole p62 (rat nucleoporin p62 expressed in E. coli) (rat, UniProt P17955 1-525); assay: far-Western, overlay or dot blot
T1 sequence: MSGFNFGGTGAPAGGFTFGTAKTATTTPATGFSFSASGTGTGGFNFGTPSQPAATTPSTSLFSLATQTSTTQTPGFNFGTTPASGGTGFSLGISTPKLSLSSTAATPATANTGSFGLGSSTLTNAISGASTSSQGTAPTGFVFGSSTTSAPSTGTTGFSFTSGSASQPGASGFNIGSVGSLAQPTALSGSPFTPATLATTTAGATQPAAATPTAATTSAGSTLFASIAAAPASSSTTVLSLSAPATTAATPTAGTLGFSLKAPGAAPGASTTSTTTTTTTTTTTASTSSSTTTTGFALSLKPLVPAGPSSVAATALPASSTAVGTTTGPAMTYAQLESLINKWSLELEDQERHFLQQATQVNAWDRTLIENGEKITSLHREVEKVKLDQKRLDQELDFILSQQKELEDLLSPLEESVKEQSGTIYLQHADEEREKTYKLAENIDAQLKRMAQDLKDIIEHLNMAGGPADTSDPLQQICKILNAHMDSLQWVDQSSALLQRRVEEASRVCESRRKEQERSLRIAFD

B1: recombinant p62 rod domain (domain or fragment)
chain: MTYAQLESLINKWSLELEDQERHFLQQATQVNAWDRTLIENGEKITSLHREVEKVKLDQKRLDQELDFILSQQKELEDLLSPLEESVKEQSGTIYLQHADEEREKTYKLAENIDAQLKRMAQDLKDIIEHLNMAGGPADTSDPLQQICKILNAHMDSLQWVDQSSALLQRRVEEASRVCESRRKEQERSLRIAFD
B1: binds [1]; binds [2].
